From patent US20250051458A1, “Methods for Treating Neurodegeneration Targeting IGF1/IGF1R” (The Schepens Eye Research Institute, Inc., priority 2021, published 2025) come the findings set out here.

This data set has as its system microbead-induced glaucoma mice. The data set is classed as in vivo, mouse. The protocol: For whole mounted retina staining, mouse eyeballs were fixed in 4% paraformaldehyde for 3 hours at room temperature or overnight at 4° C. fridge after sacrificing mice with carbon dioxide (CO2). Then retinas were dissected out and incubated with blocking buffer (3% donkey serum+1% BSA+0.1% Triton+0.1% Tween in 1×PBS) for 1-3 h RT. Then retinas were subjected to immunolabeling by incubation with primary antibody (Table 1) overnight at 4° C. After washing three times by washing buffer (0.1% Triton-100 in PBS), retinas were incubated with secondary antibody at room temperature for 2 hrs. After rinsing retina three times in washing buffer for 5-10 min on shaker, mount slide with Fluoroshield Mounting Medium with DAPI (Abcam, Cat. No. ab104139). Visualize under microscope (Leica, SP8). Secondary antibody: Streptavidin, Alexa Fluor 546 conjugate (1:1000, S11225, Invitrogen), Streptavidin, Alexa Fluor 488 conjugate (1:1000, S11223, Invitrogen), Cy2 Donkey Anti-rabbit (1:1000, 711-225-152, Jackson ImmunoResearch), Cy3 Donkey Anti-mouse (1:1000, 715-165-150, Jackson ImmunoResearch), Cy3 Donkey Anti-goat (1:1000, 705-165-147, Jackson ImmunoResearch).
Total RNA was extracted from retinas of adult mice or purified retinal microglial cells using RNeasy Plus Mini kit (Qiagen, 74134) or RNeasy Micro kit (Qiagen, 74004) following manufacturer's instruction. The RNA was reversely transcribed using Takara PrimeScript™ RT Master Mix (Takara Bio, RR036A). A mixture of master mix contained cDNA, 2× Master Mix from KAPA SYBR Fast qPCR kit and […] of specific primers was used to detect specific mRNA expression level using the Mastercycler ep realplex real-time PCR system (Eppendorf, Westbury, NY). The temperature of initial denaturation was set at 95° C. for 2 mins followed by 45 cycles of 15 seconds denaturation (95° C.), 15 seconds annealing (59° C.), and 20 seconds extension (68° C.), and lastly holding at 4° C. Relative amount of specific mRNA transcript was presented in fold changes by normalization to the expression level of the housekeeping gene glyceraldehyde 3-phosphate dehydrogenase (GAPDH). Expression was analyzed using the 2−ΔΔCt method. All primers were synthesized by Integrated DNA Technologies (USA).
Elevated IOP was induced unilaterally in adult mice (10-12 weeks old) as described previously^21. Briefly, the mice were anesthetized by i.p. injection of ketamine (120 mg/kg)/xylazine (20 mg/kg) mixture using 25-gauge needle. The pupil was dilated with tropical application of 1% Tropicamide followed by proparacaine HCl (0.5%; Baush & Lomb Incorporated, Tampa, FL) to numb the eye. An entry on the corneal was generated by a 30-gauge needle, and a small air bubble was injected into anterior chamber via a glass micropipette which was connected with a Hamilton syringe. 2 μl solution of 10 μm microspheres (9.0×10^7 beads/ml sterile saline; Thermo Fisher Scientific, Cat. No. F8833) was injected into anterior chamber with care to avoid damaging the iris and the lens. The micropipette will be withdrawn slowly after delivery of microbeads. Antibiotic ointment will be applied topically on the cornea after the injection, and then leave the operated mice to recover on a warm pad and monitored every 15 minutes until awake and fully sternal.
Mice were anesthetized by isoflurane inhalation (2-4%; Webster Veterinary, Sterling, MA) delivered in 100% Oxygen with a precision Vaporizer. The IOP was measured by TonoLab tonometer (Colonial Medical Supply) before and post-MB injection. An average of 6 IOP readings will be taken as one reading. At least […] readings of IOP level will be taken per mouse eye, and the mean of 3 readings represents the IOP level of a mouse eye. Baseline level of IOP in anesthetized mice was measured before induction of elevated IOP. Then the IOP was measured twice a week after microbeads injection induced IOP elevation. The IOP was measured at the same time in the morning to minimize the circadian variation. […]

The mark [1] stands for this setting: 14 days post glaucoma induction.
Where [2] appears, read: intravitreal at day 3, 10 and 17 post IOP elevation.

B1: IGFBPL1: insulin-like growth factor binding protein like protein 1; recombinant protein (R&D system, 4130-BL) (protein)
chain: LGLRDAGRRHPECSPCQQDRCPAPSPCPAPWISARDECGCCARCLGAEGASCGGPVGSRCGPGLVCASRASGTAPEGTGLCVCAQRGAVCGSDGRSYSSICALRLRARHAPRAHHGHLHKARDGPCEFAPVVLMPPRDIHNVTGTQVFLSCEVKAVPTPVITWKKVKHSPEGTEGLEELPGDHVNIAVQVRGGPSDHETTSWILINPLRKEDEGVYHCHAANAIGEAQSHGTVTVLDLNRYKSLYSSVPGDLL
Take B1: where the note is “4- and 8-weeks post glaucoma induction”, the “Contrast sensitivity (CS) and visual acuity (VA) by optomotor response” value was “restored CS and VA”. Also, under setting [1], the “Expression of pro-inflammatory cytokines (C1q, Tnfα, Il-1β, Il-1α) in glaucoma retina” value is given as “remarkably reduced” and the “Level of activated microglia markers (Iba-1, Ym-1, Nox-2, Cd163) in retina by qPCR” value is “dramatically down-regulate”. Further, where the note is “day 14 post glaucoma induction”, the “Reactive astrocyte number and GFAP level in retina” value is “significantly restored”. For the same molecule, under setting [2], the “RGC quantification compared with baseline” value is reported as “no significant difference with baseline”; the “RGCs loss and dysfunction from glaucomatous damages” value is “significantly prevented RGCs loss and dysfunction”. Further, the “IBA-1+ microglia activation (morphology, cell density) in retina” value (intravitreal at day 3 and 10, 2 wks post glaucoma-induced injury) is given as “reverse activated microglia into resting state”. For the same molecule, the “pSTR amplitude (ERG) compared with baseline” value (mouse, in vivo) was “no significant difference with baseline”.
